Measured values as given in patent US20110177111A1, “[…] AGAINST STAPHYLOCOCCUS AUREUS BIOFILMS […] WALL-[…]” (UNIVERSITY OF MARYLAND, BALTIMORE, priority 2008, published 2011).
Marks after values point to notes of the source that are not given here.

B1: Glucosaminidase: Purified recombinant S. aureus glucosaminidase (SEQ ID NO:1), one of the two protein components of autolysin AtlA (protein, listed as Staphylococcus aureus)
chain: MAKKFNYKLPSMVALTLVGSAVTAHQVQAAETTQDQTTNKNVLDSNKVKATTEQAKAEVKNPTQNISGTQVYQDPAIVQPKAANKTGNAQVNQKVDTTQVNGDTRATQSTTSNNAKPVTKSTNTTAPKTNNNVTSAGYSLVDDEDDNSENQINPELIKSAAKPAALETQYKAAAPKATPVAPKAKTEATPKVTTFSASAQPRSAAAAPKTSLPKYKPQVNSSINDYIRKNNLKAPKIEEDYTSYFPKYAYRNGVGRPEGIVVHDTANDRSTINGEISYMKNNYQNAFVHAFVDGDRIIETAPTDYLSWGVGAVGNPRFINVEIVHTHDYASFARSMNNYADYAATQLQYYGLKPDSAEYDGNGTVWTHYAVSKYLGGTDHADPHGYLRSHNYSYDQLYDLINEKYLIKMGKVAPWGTQSTTTPTTPSKPSTPSKPSTPSTGKLTVAANNGVAQIKPTNSGLYTTVYDKTGKATNEVQKTFAVSKTATLGNQKFYLVQDYNSGNKFGWVKEGDVVYNTAKSPVNVNQSYSIKPGTKLYTVPWGTSKQVAGSVSGSGNQTFKASKQQQIDKSIYLYGSVNGKSGWVSKAYLVDTAKPTPTPTPKPSTPTTNNKLTVSSLNGVAQINAKNNGLFTTVYDKTGKPTKEVQKTFAVTKEASLGGNKFYLVKDYNSPTLIGWVKQGDVIYNNAKSPVNVMQTYTVKPGTKLYSVPWGTYKQEAGAVSGTGNQTFKATKQQQIDKSIYLYGTVNGKSGWISKAYLAVPAAPKKAVAQPKTAVKAYAVTKPQTTQTVSKIAQVKPNNTGIRASVYEKTAKNGAKYADRTFYVTKERAHGNETYVLLNNTSHNIPLGWFNVKDLNVQNLGKEVKTTQKYTVNRSNNGLSMVPWGTKNQVILTGNNIAQGTFNATKQVSVGKDVYLYGTINNRTGWVNSKDLTAPTAVKPTTSAAKDYNYTYVIKNGNGYYYVTPNSDTAKYSLKAFNEQPFAVVKEQVINGQTWYYGKLSNGKLAWIKSTDLAKELIKYNQIGMTLNQVAQIQAGLQYKPQVQRVPGKWTDANFNDVKHAMDTKRLAQDPALKYQFLRLDQPQNISIDKINQFLKGKGVLENQGAAFNKAAQMYGINEVYLISHALLETGNGTSQLAKGADVVNNKVVTNSNTKYHNVFGIAAYDNDPLREGIKYAKQAGWDTVSKAIVGGAKFIGNSYVKAGQNTLYKMRWNPAHPGTHQYATDVDWANINAKIIKGYYDKIGEVGKYFDIPQYK

What was measured:
MRSA-M2 [1] = experiment: Rabbit tibial osteomyelitis model: vaccination, MRSA challenge, then vancomycin therapy; conditions: rabbits, 75 μg each antigen per injection
MRSA-M2 [2] = experiment: Rabbit tibial osteomyelitis (biofilm) infection model: vaccination, then intratibial MRSA-M2 challenge; type: in vivo, Staphylococcus aureus
Description: Animals were divided at random into groups.
Production of osteomyelitis. […] The infection was allowed to progress for 14 days.
Analysis of vaccine efficacy. Vaccine efficacy was evaluated in three ways.
Among these antigens, autolysin (AtlA) was one of the most immunoreactive. Because of its reported role in biofilm formation (31, 32) and its up-regulation during early biofilm growth (when an immune response could theoretically eradicate the biofilm), autolysin was tested as a vaccine. Purified recombinant glucosaminidase (one of the two protein components of AtlA) was injected into rabbits (three doses of 10 μg each, 10 days apart) and then animals were challenged using a tibial osteomyelitis infection.
Antibodies elicited by a single antigen vaccine may not provide adequate immunological recognition of the biofilm in vivo to enable complete microbial clearance. […] Therefore, the aforementioned antigens were tested as a multi-component vaccine. To this end, animals were vaccinated with 10 μg of each of four antigens: glucosaminidase, SA0688 (an ABC transporter lipoprotein), SA0037 (a conserved hypothetical protein), and SA0486 (a hypothetical lipoprotein), following the same dosing schedule as above. […] As well, vaccinated animals trended to lower CFU counts and an 88% reduction in bacterial loads in the tibia (FIG. 3A—quadrivalent). However, this reduction in bacterial populations was not statistically significant. Two doses of the combined vaccine at 15 μg each per dose were also studied, wherein increasing the prime and boost may lead to a more robust initial immune response when the biofilm is immature (and thus, enable clearance by the immune response).

| Molecule | Percentage showing clinical signs of infection (MRSA-M2 [1]; vancomycin 40 mg/kg twice daily for ten days) [%] | Mean radiological score (MRSA-M2 [1]; vancomycin 40 mg/kg twice daily for ten days from 14 days after challenge, score 0 to 4+) | Mean radiological score (MRSA-M2 [2]; New Zealand White rabbits, three i.m. doses of 10 μg (each antigen), 10 days apart, 14 days after intratibial MRSA, score 0 to 4+ (Table 2)) | Number cleared (MRSA-M2 [2]; rabbits cleared of infection, 4 glucosaminidase, 5 multi-component animals, three doses of 10 μg (each antigen)) | % showing clinical signs of infection (MRSA-M2 [2]; rabbits, three doses of 10 μg (each antigen), non-weight bearing on affected leg, 14 days after MRSA inoculation) [%] | bacteriological signs of infection compared to PBS-vaccinated controls (MRSA-M2 [2]; rabbits, three doses of 10 μg each, 10 days apart) | Mean CFU/grams bone in affected tibias (MRSA-M2 [2]; rabbits, three doses of 10 μg, FIG. 1, PBS controls 9.84×10^7) |
| --- | --- | --- | --- | --- | --- | --- | --- |
| CN[C@H](CC(C)C)C(=O)N[C@H]1C(=O)N[C@@H](CC(N)=O)C(=O)N[C@H]2C(=O)N[C@H]3C(=O)N[C@H](C(=O)N[C@H](C(=O)O)c4cc(O)cc(O)c4-c4cc3ccc4O)[C@H](O)c3ccc(c(Cl)c3)Oc3cc2cc(c3O[C@@H]2O[C@H](CO)[C@@H](O)[C@H](O)[C@H]2O[C@H]2C[C@](C)(N)[C@H](O)[C@H](C)O2)Oc2ccc(cc2Cl)[C@H]1O [PBS + vancomycin, vancomycin] | 100 | 2.1 | – | – | – | – | – |
| B1 | – | – | 0.37* | 1 | 0 | did not lead to significant differences | 3.6×10^7 CFU/grams bone |
